Laboratory results as given in the RNAGym collection of RNA variant scans (doi:10.7554/elife.80360).

B1: HDV Ribozyme (parent)
chain: GGCCGGCAUGGUCCCAGCCUCCUCGCUGGCGCCGGCUGGGCAACAUUCCGAGGGGACCGUCCCCUCGGUAAUGGCGAAUGGGACCCA

Variants of: B1
Test: self-cleavage, relative activity (ratio to wild type); higher = more cleavage; co-transcriptional

Variant | self-cleavage
A16U G35U | 0.208
G76U G80C | 0.204
G39U C63U | 0.915
C61G A87G | 0.994
G28U C57U | 0.208
C58G C85A | 1.05
A56G G82A | 0.277
A56C C61G | 1.05
C19A U79G | 0.0923
G1C A83G | 0.151
G11C G40C | 0.0475
U23G C62U | 0.403
G1C C62U | 0.282
G6A A56U | 0.601
C33G A83G | 0.0963
C66U G81U | 0.382
C19G G74C | 0.0665
G31C C66A | 0.405
C24A U65G | 0.511
G6A A8C | 0.323
G74C G81A | 0.0875
C32A G81C | 0.0475
G28U G54A | 0.115
G34A C57G | 0.0997

Variant | self-cleavage
G34C A77U | 0.125
C7U C22G | 0.0678
C32A G73U | 0.0959
G28C G34U | 0.0386
C48U U60A | 1
U79G G82A | 0.0875
C41U A42G | 0.872
A56C G67C | 1.01
C57U C58A | 1.13
G17C A56G | 0.145
C63A A87C | 1
G28C G35A | 0.0326
G31U A87G | 0.323
U9A A45C | 0.723
U12C C21G | 0.0791
G73U G82U | 0.224
G28U A42C | 0.0415
G6C G17A | 0
U23C G54U | 1.01
U60C A71U | 0.665
G52A C64U | 0.992
A16C A71C | 0.492
G40C G50C | 0.225
G29A G55A | 0.208

Variant | self-cleavage
C62U A71G | 0.997
G2A C19G | 0
C24A C85G | 0.69
C41A G54U | 0.862
G11U C61A | 0.355
G67A A83G | 0.39
C19A C66G | 0.115
C24A C32U | 0.619
C22G C75U | 0.16
U69C G76A | 1.07
A42C A78U | 0.0449
G2C U9C | 0.128
C26U C58U | 1.16
G52A U69C | 1.21
C24A C26G | 0.858
C24U A77C | 0.119
A45C G52A | 0.684
G11A U72A | 0.179
G2A G25U | 0.161
A8C G28U | 0.0978
A45C C84U | 0.499
A77G A87U | 0.851
C44A A77G | 0.396
U37G G55A | 0.0831

Variant | self-cleavage
C7G G59C | 0.404
U37C A77U | 0.388
C4G U72G | 0.0519
C49U C85G | 0.876
C15A C30G | 0.138
C15G U72G | 0.128
C4G G55C | 0.185
A56G C86U | 0.987
C7U C84U | 0.686
A16C G74U | 0.415
G38U G81U | 0.0545
G31U C64U | 0.475
C4G C85A | 0.435
G39C C44A | 0.271
C19U U37C | 0.185
C4U A77G | 0.578
G5U U46G | 0
C13G A16G | 0.0831
U9G A43U | 0.886
C57U C86G | 0.862
C14G U69C | 0.519
G17C G39C | 0.0462
C30G U69C | 0.18
G1A U27C | 0.119

Variant | self-cleavage
U37C U69A | 0.9
G2A G74A | 0.0457
G34A A51G | 0.0504
C61U G76U | 1.06
C24A C66U | 0.69
U46C C62A | 0.623
G25C C41A | 0.0898
G6A A70U | 0.399
C26A C44A | 0.914
C4A G82C | 0.0396
C41U A77C | 0.341
C41G G74C | 0.119
G35A G68C | 0.676
U12G C84U | 0.692
U46A C64A | 0.554
C19A G29A | 0
C86A A87C | 0.855
C44A G55A | 0.554
C13U C21G | 0.115
G1A G5C | 0
G38U C64U | 0.25
G31A G55U | 0.347
C44U G74U | 0.67
C36U U60C | 0.959

Variant | self-cleavage
U20G G59A | 0.268
C4G C36A | 0.0241
U12G U20G | 0
G34C G35A | 0.115
G67U G76A | 1.18
G34C C63A | 0.166
C41G A83U | 0.77
C4G C61U | 0.475
C48U U60G | 0.776
G17A G31C | 0.188
G53C G82C | 0.0923
C48A G50A | 0.969
U12A C41A | 0.437
A56C C75A | 0.116
C49U G59C | 0.799
C30G G76U | 0.109
G1A G67C | 0
G81A G82C | 0.163
C30U G38C | 0
C7G C21G | 0
G6U G39C | 0.151
G34C G74A | 0.0354
C19U G35A | 0.234
C57U C62U | 0.799

Variant | self-cleavage
G73C A77C | 0.287
G17C A43U | 0.115
G31C C32U | 0.0723
C48G C63U | 1.08
G25A G40C | 0.0959
G25C C75G | 0.185
C14A G67U | 0.532
C14U U60C | 1.11
C15U G59A | 0.851
C3U G59U | 0.943
G50C G52A | 0.66
U12C U60A | 0.145
G76U C86A | 0.615
G73U C85G | 0.437
U9A A78U | 0.332
G73U C84G | 0.329
A51U G68A | 0.787
G35U G40C | 0.136
G17A G74U | 0.197
G28U C33U | 0.117
C3G G59A | 0.831
G10U G80C | 0.0936
G80A G82C | 0.0978
G5A G73U | 0.108

Variant | self-cleavage
U12C A77C | 0.237
G1U A87G | 0.332
G31A C75U | 0.122
C41A C63A | 0.969
C22G G25C | 0.0665
G38A A78U | 0.0297
G17U A71C | 0.383
U9C C48U | 0.748
G28A C57U | 0.163
G34A G73C | 0.147
G17C U79G | 0.128
G17C C19A | 0.0519
G2A C62G | 0.086
U27G A77C | 0.277
C24G U46A | 0.0326
A70C C84A | 0.646
G6U U12G | 0
C57G U69A | 0.767
C36U C85G | 0.799
U12C A78C | 0.162
U72G C84G | 0.214
G10A G39U | 0.293
A70G C85G | 0.831
C7U C21A | 0.0314

Variant | self-cleavage
C21G G59U | 0.0941
G53A C86G | 1.1
C26A U60G | 1.2
C41U A42U | 0.831
C3G G17A | 0.102
G39A C64G | 0.492
G6C A51G | 0.222
G52C A83U | 0.389
C3G U37G | 0.123
G25A C26G | 1.11
C19U G50C | 0.332
G28C G55U | 0.196
G38U C64G | 0.177
G29A G67A | 0.0791
G53U C62U | 1.06
U47C C58G | 0.807
C21G A45U | 0.0405
C33G C48U | 0.13
U37A C75A | 0.0707
U20C C32U | 0.0426
C4U C57G | 0.629
C36A C86U | 0.17
C26A U47C | 0.646
C57A G59A | 1.04

Variant | self-cleavage
G6U C57G | 0.491
C48U G82A | 0.532
U27C G55A | 0.533
G59C G76A | 0.767
U65A C86A | 1.07
G28U A56U | 0.0941
C22A C49G | 0.143
U47C G80A | 0.215
C36A G53A | 0.218
C32A U47G | 0.246
C64A G68C | 0.554
G6U A71G | 0.399
C15U G50C | 0.831
C33G U37A | 0.225
C30G G34C | 0.107
G1U C85U | 0.321
G31C G73U | 0.0779
G53C G55U | 0.987
C22G C58G | 0
G2U U60G | 0.0831
G35C G40C | 0.185
A16G U69G | 0.962
G59C C61U | 1.01
C36A G80A | 0.12

Variant | self-cleavage
G39A U69G | 0.305
G29U G55U | 0.0944
G5A C7A | 0
G54C C62U | 0.746
C33G U46C | 0.185
G1U C63A | 0.391
C32G G54A | 0.0898
G50A C61A | 0.875
U37C A83C | 0.383
U20C A45G | 0
A42U A87U | 0.56
G28U C36U | 0
G53C C62A | 0.937
C7A C24U | 0.306
A42G U60A | 0.302
C3U C84G | 0.636
U12C C41G | 0.289
G38A A77C | 0.0354
G1A U23C | 0
G54A A77U | 0.634
C15A G38C | 0.0831
U27G C63U | 1.11
C61U G73C | 0.629
G10C C36A | 0.0627

Variant | self-cleavage
C33A G52A | 0.229
U9A C33U | 0.808
G35C G59C | 0.424
G1C C66G | 0.128
G52C C84G | 0.978
G10U C85G | 1.03
C4G G81U | 0.0554
C14U G25U | 0.59
C13G G50C | 0.0594
C41U G53U | 1.1
G34U G35A | 0.204
G11U U46G | 0.285
G2U C15G | 0.0282
C33G G40A | 0.243
C19U C66G | 0.155
C7G C19U | 0
A51U G53C | 0.776
C7G C75U | 0
C14U A78G | 0.831
U27A G82A | 0.849
C4U A42C | 0.0475
C22U C86A | 0.779
C21U C63U | 0.341
C30U U47A | 0.532

Variant | self-cleavage
C21U C66U | 0.299
U72G G80A | 0.185
C15U A51C | 1.17
G11U G68U | 0.17
G6U U69G | 0.375
C61U G82C | 0.281
C66A G67U | 0.878
G10U C86G | 0.445
G2U G29A | 0.0178
C48G A83U | 0.554
C58A C84U | 0.919
A43U A51U | 0.332
A8G G54C | 1.07
A51U C58U | 1.17
G25U A45C | 0.0831
C49A G52U | 0.369
C61U A71U | 1.02
U9C A78U | 0.185
C33A U65C | 0.158
G39A U65A | 0.396
G29U C75U | 0.0767
C61A C84U | 0.831
C13A C14A | 0.128
U9A C24A | 0.914

Variant | self-cleavage
U37C U79A | 0.554
U20G C85A | 0.277
C13A G39A | 0.121
C15G G54C | 0.415
C21A C22G | 0.108
C63A C64U | 0.903
U65G U79A | 0.306
C32A C33A | 0.129
C3A C15G | 0.237
C3G G68A | 0.51
A43U A51G | 0.911
A83G C86G | 0.807
U69G A87C | 0.822
U9A A45U | 0.719
U9C G76A | 1.05
C32U U72A | 0.692
G5C C36G | 0.0978
G29A A45G | 0.142
C19G G35U | 0.119
C63G G81C | 0.277
C15U G76A | 0.997
C3A G67C | 0.61
